From paper PMC6344859, “Structural basis for acceptor RNA substrate selectivity of the 3′ terminal uridylyl transferase Tailor”

Key:
[1] = biological target: T1, Tailor (DmTailor180-560) (Drosophila melanogaster, UniProt Q9VI58 180-560); test: crystal structure (2.0 A); two Mg2+; Crystallization conditions not in material; protein stock 20 mM HEPES pH 7.0, 150 mM KCl, 2 mM MgCl2, 1 mM DTT; details: protein: recombinant; tags: none after TEV cleavage (His6-MBP removed); single strand
[2] = biological target: T1, Tailor (DmTailor180-560); test: crystal structure (1.85 A); two Mg2+; Crystallization conditions not in material; protein stock 20 mM HEPES pH 7.0, 150 mM KCl, 2 mM MgCl2, 1 mM DTT; details: protein: recombinant; tags: none after TEV cleavage (His6-MBP removed); single strand

T1 sequence (Q9VI58 180-560): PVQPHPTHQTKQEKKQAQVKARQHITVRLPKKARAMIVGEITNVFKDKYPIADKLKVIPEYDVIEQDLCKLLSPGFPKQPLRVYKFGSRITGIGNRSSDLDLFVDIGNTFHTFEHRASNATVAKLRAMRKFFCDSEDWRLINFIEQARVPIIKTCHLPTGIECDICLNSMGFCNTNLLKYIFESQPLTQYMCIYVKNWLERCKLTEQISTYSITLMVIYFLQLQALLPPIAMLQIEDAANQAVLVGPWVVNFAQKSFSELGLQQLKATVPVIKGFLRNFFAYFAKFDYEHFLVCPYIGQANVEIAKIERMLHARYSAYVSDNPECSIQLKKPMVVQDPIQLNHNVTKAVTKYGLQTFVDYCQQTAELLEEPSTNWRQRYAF

Row | Binder | binding result [1] | binding result [2]
1 | UUUUUU (ssRNA) [U6] | binds | –
2 | CACAGU (ssRNA) | – | binds
